Experimental findings from patent publication WO2012175740A1 are described below.

One may read the % inhibition as how much of the control response was suppressed. The low end stands for little suppression, the high end for strong suppression. By IC50 is commonly meant the concentration that inhibits the measured activity by half. A higher IC50 goes with lower potency.

Where two headings read alike, the source gives them in different places.

Experiment [1] has as its target cyno IgE c(epsilon)2-c(epsilon)3-c(epsilon)4 Fc fragment with C-terminal (His)10 tag (cynomolgus monkey). Description: Alphascreen, competition with HuFc(epsilon)RI(alpha)Fc for cyno IgE Fc. (Bead proximity is the source of the signal in Alpha formats.)
Experiment [2] has the same target. Described as above. This is another data set of the same source.

Chain of cyno IgE c(epsilon)2-c(epsilon)3-c(epsilon)4 Fc fragment with C-terminal (His)10 tag (cynomolgus monkey) (chain, as listed by the source): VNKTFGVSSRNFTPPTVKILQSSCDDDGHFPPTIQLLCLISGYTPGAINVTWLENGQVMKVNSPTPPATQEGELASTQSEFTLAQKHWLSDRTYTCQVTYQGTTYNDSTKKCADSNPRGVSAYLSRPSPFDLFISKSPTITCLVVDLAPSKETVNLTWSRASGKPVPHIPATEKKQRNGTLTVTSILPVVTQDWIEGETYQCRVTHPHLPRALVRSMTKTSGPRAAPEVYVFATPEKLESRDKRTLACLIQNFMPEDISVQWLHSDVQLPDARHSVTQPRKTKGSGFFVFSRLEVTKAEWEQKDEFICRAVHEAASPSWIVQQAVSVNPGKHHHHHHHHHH

In experiment [1], “Fab obtained by papain digestion of commercially obtained omalizumab” came in with a % inhibition at 250 nM of 99.3% and a 50% inhibitory concentration (IC50) of 1.39 nM. In experiment [2], this substance registered a % inhibition at 250 nM of 97.7% and an IC50 of 1.3 nM.
